# Results as given in PMC10806181.
# Read-outs that look alike come from different tables or passages of the source.
# Assays:
# [1] = target: Sho-Stl, enzymatically biotinylated on a C-terminal Avi-tag (Staphylococcus hominis); test: BLI
# [2] = target: human dUTPase, enzymatically biotinylated on an N-terminal Avi-tag (human); test: BLI
# [3] = target: Stl master repressor of the Staphylococcus aureus SaPIbov1 pathogenicity island (Staphylococcus aureus (SaPIbov1)); test: BLI; dimer to monomers; KDIM estimated by probing dimerization constants until the ka values of the two BLI set-ups (Stl or human dUTPase on the sensor) were close to equal
# [4] = target: Stl master repressor of the Staphylococcus aureus SaPIbov1 pathogenicity island (Staphylococcus aureus (SaPIbov1)); test: BLI + other: steady state dUTPase activity assay; dimer to monomers; rough estimate of KDIM from the BLI KD and the remaining activity of 50 nM human dUTPase at 200 and 300 nM Stl, assuming no competition of substrate binding
# [5] = target: Sa-Stl, enzymatically biotinylated on a C-terminal Avi-tag (Staphylococcus aureus (SaPIbov1)); test: BLI
# [6] = target: Sho-Stl-NDY bound to the streptavidin sensor (Staphylococcus hominis); test: BLI
# [7] = target: Sho-Stl, enzymatically biotinylated on a C-terminal Avi-tag (Staphylococcus hominis); test: BLI; remark: listed apart in the source
# [8] = target: human dUTPase (human)
# [9] = target: Mycobacterium tuberculosis dUTPase, enzymatically biotinylated on an N-terminal Avi-tag (Mycobacterium tuberculosis) (UniProt P9WNS5); test: BLI
# [10] = target: Stl repressor of the Staphylococcus hominis ShoCI794_SEPI pathogenicity island (Staphylococcus hominis); test: SEC; gelfiltration of Sho-Stl (Fig. S1)
# [11] = target: Stl repressor of the Staphylococcus hominis ShoCI794_SEPI pathogenicity island (Staphylococcus hominis); test: cross-linking; chemical crosslinking of Sho-Stl in solution (Fig. S1)
# [12] = target: Stl repressor of the Staphylococcus hominis ShoCI794_SEPI pathogenicity island (Staphylococcus hominis); test: BLI + other: steady state dUTPase activity assay; dimer to monomers; rough estimate of KDIM from the BLI KD and the remaining activity of 50 nM human dUTPase at 200 and 300 nM Stl, assuming no competition of substrate binding
substance,measurement,setting,value
Mycobacterium tuberculosis dUTPase (from UniProt P9WNS5 1-154) (enzyme),Kd,[1],0.013 nM
same,koff,[1],2.9e-07 s⁻¹
same,kon,[1],22000 M⁻¹ s⁻¹
Stl master repressor of the Staphylococcus aureus SaPIbov1 pathogenicity island (natural protein),Kd,[2],9.75 nM
same,koff,[2],0.00065 s⁻¹
same,kon,[2],67000 M⁻¹ s⁻¹
same,Kd,[3],0.12 nM
same,Kd,[4],0.001 nM
human dUTPase (enzyme),Kd,[5],0.18 nM
same,koff,[5],0.00027 s⁻¹
same,kon,[5],1.5e+06 M⁻¹ s⁻¹
same,Kd,[1],4.54 nM
same,koff,[1],0.00023 s⁻¹
same,kon,[1],52000 M⁻¹ s⁻¹
same,Kd,[6],7.62 nM
same,koff,[6],0.00024 s⁻¹
same,kon,[6],31000 M⁻¹ s⁻¹
same,koff,[7],0.00025 s⁻¹
Stl repressor of the Staphylococcus hominis ShoCI794_SEPI pathogenicity island (natural protein),steady state dUTPase enzyme activity of 50 nM human dUTPase at 200 nM and 300 nM Sho-Stl (remaining activity); Sho-Stl does not inhibit the human dUTPase (% remaining activity),[8],100
same,Kd,[9],35 nM
same,koff,[9],0.00041 s⁻¹
same,kon,[9],12000 M⁻¹ s⁻¹
same,stoichiometry N,[10],2
same,stoichiometry N,[11],2
same,Kd,[12],0.001 nM
